The results in this text go back to publication PMC2265524, “ruvA Mutants That Resolve Holliday Junctions but Do Not Reverse Replication Forks” (PLoS Genetics, 2008).

Series [1] concerns the target T1, RuvA wild type (Escherichia coli, UniProt P0A809 1-203).
T1 sequence: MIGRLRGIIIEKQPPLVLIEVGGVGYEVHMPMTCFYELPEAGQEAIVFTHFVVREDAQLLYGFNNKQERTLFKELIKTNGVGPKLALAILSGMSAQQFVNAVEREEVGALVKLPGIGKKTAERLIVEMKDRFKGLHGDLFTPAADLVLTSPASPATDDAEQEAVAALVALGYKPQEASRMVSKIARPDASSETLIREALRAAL
Briefly: EMSA; EDTA; complexes I and II; EMSA with ~4-5 ng labelled DNA; 5 mM EDTA (gel 0.5x TBE) or 3 mM MgCl2 without EDTA (gel 0.5x TB + 200 uM MgCl2); buffer as in cited ref 18; salt, pH and temperature not stated. The settings on record: protein: recombinant; chain copies: 4; label: 5' IRD700 on S24 (IT.01); four-way junction of 4 strands.

The target of series [2] is T2, wild-type RuvB protein (E. coli) (UniProt P0A812).
T2 sequence: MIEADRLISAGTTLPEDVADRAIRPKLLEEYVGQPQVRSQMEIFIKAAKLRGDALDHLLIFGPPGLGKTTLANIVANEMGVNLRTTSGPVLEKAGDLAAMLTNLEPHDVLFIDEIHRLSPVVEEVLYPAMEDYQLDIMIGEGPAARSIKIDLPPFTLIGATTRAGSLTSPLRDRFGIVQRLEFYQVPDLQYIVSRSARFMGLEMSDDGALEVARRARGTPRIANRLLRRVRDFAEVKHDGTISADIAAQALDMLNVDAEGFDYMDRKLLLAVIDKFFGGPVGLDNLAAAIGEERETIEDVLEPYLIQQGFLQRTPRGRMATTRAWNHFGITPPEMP

Series [3] deals with the molecule itself. Description: SDS-PAGE without boiling the protein samples; purified RuvA mutant proteins run on SDS-PAGE without boiling; tetramer band under denaturing gel conditions; data not shown.

B1: X12 (synthetic Holliday junction) (structured_DNA)
DNA 1: GACGCTGCCGAATTCTACCAGTGCCTTGCTAGGACATCTTTGCCCACCTGCAGGTTCACCC
DNA 2: TGGGTGAACCTGCAGGTGGGCAAAGATGTCCTAGCAATGTAATCGTCAAGCTTTATGCCGTT
DNA 3: CAACGGCATAAAGCTTGACGATTACATTGCTAGGACATGCTGTCTAGAGGATCCGACTATCGA
DNA 4: ATCGATAGTCGGATCCTCTAGACAGCATGTCCTAGCAAGGCACTGGTAGAATTCGGCAGCGT
On to B1, for which the binding result in series [1] is given as “binds”.

B2: wild-type RuvA (natural protein)
chain: MIGRLRGIIIEKQPPLVLIEVGGVGYEVHMPMTCFYELPEAGQEAIVFTHFVVREDAQLLYGFNNKQERTLFKELIKTNGVGPKLALAILSGMSAQQFVNAVEREEVGALVKLPGIGKKTAERLIVEMKDRFKGLHGDLFTPAADLVLTSPASPATDDAEQEAVAALVALGYKPQEASRMVSKIARPDASSETLIREALRAAL
The molecule B2 displayed a RuvA concentration required for RuvB (250 nM) to unwind 50% of a labelled 52-mer annealed to phiX174 ssDNA (DNA helicase assay) in series [2] of 100 nM.

B3: RuvAz87 (natural protein, E. coli, UniProt P0A809 1-203, looked up)
chain: MIGRLRGIIIEKQPPLVLIEVGGVGYEVHMPMTCFYELPEAGQEAIVFTHFVVREDAQLLYGFNNKQERTLFKELIKTDGVGPKLALAILSGMSAQQFVDAVEREEVGALVKLPGIGKKTAERLIVEMKDRFKGLHGDLFTPAADLVLTSPASPATDDAEQEAVAALVALGYKPQEASRMVSKIARPDASSETLIREALRAAL
notes: RuvA of E. coli with the two mutations N79D N100D; Purification steps and expression construct of the mutant proteins are in the supplementary material (Text S1); also called ruvAz87 (N79D N100D); ruvA87; source: over-expressed in E. coli and purified
For the molecule B3, in series [3], the “stoichiometry N” value came out at 4.

B4: RuvAz3 (natural protein, E. coli, UniProt P0A809 1-203, looked up)
chain: MIGRLRGIIIEKQPPLVLIEVGGVGYEVRMPMTCFYELPEAGQEAIVFTHFVVREDAQLLYGFNNKQERTLFKELIKTNGVGPKLALAILSGMSAQQFVNAVEREEVGALVKLPGIGKKTAERLIVEMEDRFKGLHGDLSTPAADLVLTSPASPATDDAEQEAVAALVALGYKPQEASRMVSKIARPDASSETLIREALRAAL
notes: RuvA of E. coli with the three mutations H29R K129E F140S; Purification steps and expression construct of the mutant proteins are in the supplementary material (Text S1); also called ruvAz3 (H29R K129E F140S); pGB-ruvAz3; source: over-expressed in E. coli and purified
Take B4: in series [3], the “stoichiometry N” value stood at 4.
